According to US20170066836A1 (NATIONAL UNIVERSITY CORPORATION KOCHI UNIVERSITY, published 2017):

T1: recombinant Glypican-1 (R&D systems 4519-GP-050) (Homo sapiens (Human), UniProt P35052 24-530)
T1 construct: Bought protein
T1 sequence: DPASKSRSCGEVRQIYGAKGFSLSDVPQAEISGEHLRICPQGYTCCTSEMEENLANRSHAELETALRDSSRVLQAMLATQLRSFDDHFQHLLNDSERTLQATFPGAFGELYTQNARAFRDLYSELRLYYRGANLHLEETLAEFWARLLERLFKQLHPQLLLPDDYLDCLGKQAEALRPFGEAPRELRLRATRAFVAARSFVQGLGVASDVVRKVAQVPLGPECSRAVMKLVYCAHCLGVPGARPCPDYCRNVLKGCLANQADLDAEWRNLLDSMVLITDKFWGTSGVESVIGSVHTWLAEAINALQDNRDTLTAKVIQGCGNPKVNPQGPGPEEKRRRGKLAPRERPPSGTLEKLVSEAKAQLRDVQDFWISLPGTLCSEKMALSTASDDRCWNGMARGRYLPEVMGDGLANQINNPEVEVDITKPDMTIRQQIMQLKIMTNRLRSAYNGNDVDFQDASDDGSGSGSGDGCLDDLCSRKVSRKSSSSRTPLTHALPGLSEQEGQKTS

T2: mouse Glypican-1 expressed on 293 cells (mouse, UniProt Q9QZF2 24-529)
T2 construct: whole, on cells; also called mouse GPC-1; mouse GPC1
T2 sequence (looked up): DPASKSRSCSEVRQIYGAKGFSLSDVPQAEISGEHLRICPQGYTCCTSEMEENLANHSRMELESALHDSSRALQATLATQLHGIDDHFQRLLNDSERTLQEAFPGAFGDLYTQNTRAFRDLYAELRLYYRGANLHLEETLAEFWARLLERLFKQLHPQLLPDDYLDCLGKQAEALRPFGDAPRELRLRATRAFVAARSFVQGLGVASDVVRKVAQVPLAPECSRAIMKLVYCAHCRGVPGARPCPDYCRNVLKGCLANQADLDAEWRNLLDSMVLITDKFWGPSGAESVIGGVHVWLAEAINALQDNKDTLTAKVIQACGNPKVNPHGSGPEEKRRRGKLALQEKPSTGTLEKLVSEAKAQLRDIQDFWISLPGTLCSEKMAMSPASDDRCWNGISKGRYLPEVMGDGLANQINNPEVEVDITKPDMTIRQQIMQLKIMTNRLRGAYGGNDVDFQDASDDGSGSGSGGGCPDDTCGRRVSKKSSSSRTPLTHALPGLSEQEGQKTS

T3: human Glypican-1 forcibly expressed on CT01 chicken T-lymphoblast-like cells (CT01-GPC-1#42) (human, UniProt P35052 24-530)
T3 sequence: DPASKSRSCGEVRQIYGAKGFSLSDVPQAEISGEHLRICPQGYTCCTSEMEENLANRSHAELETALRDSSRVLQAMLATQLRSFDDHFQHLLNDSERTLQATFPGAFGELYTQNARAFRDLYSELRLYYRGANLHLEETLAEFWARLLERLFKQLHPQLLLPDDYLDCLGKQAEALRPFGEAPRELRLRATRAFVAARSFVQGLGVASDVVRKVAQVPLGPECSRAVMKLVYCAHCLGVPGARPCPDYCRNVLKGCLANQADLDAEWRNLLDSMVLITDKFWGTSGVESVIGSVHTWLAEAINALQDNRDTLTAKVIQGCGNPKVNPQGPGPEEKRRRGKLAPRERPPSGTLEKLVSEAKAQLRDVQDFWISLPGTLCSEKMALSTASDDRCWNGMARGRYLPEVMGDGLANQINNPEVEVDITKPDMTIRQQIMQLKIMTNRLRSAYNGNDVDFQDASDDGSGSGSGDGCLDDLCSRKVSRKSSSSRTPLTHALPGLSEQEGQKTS


Legend:
[1] = target: T1, recombinant Glypican-1 (R&D systems …); assay: Biacore 3000 (SPR): antibody captured on rabbit anti-mouse IgG on a CM5 chip, recombinant Glypican-1 added at various concentrations; BIAevaluation 4.1
Experimental: (§1) Affinity analysis of an anti-Glypican-1 antibody was measured using Biacore 3000. A rabbit anti-mouse IgG polyclonal antibody of the Mouse Antibody Capture Kit was solid-phased to a CM5 sensor tip, various anti-Glypican1 antibody clones were captured, recombinant Glypican-1 (R&D systems 4519-GP-050) was added at various concentrations as a ligand, and binding and dissociation were monitored. The obtained sensorgram was analyzed using BIAevaluation 4.1 software and a KD value was calculated (FIG. 12).

[2] = target: T4, human Glypican-3 expressed on 293 cells (pFLAG-CMV3 hGPC3) (human, UniProt P51654 25-554); assay: FACS on 293 cells transfected with pFLAG-CMV3 hGPC3
T4 construct: whole, on cells; FLAG-tagged through the vector; also called human GPC-3
T4 sequence (P51654 25-554 limits assumed): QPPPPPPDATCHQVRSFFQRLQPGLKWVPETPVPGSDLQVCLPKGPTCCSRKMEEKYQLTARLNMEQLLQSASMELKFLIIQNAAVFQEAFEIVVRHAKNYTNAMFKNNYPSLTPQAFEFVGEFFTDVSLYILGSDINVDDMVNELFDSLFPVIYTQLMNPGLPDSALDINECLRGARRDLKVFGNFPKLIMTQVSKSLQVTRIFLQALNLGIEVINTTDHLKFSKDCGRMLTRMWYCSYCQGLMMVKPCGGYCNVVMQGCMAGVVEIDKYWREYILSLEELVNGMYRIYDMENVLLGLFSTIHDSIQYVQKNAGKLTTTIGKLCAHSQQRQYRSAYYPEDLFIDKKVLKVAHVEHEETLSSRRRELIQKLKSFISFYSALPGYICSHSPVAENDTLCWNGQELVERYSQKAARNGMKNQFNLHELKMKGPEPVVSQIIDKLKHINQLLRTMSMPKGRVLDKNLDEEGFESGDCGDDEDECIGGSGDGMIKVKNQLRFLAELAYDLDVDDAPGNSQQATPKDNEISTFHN
Experimental: Subsequently, a characteristic of various anti-Glypican-1 antibodies that reacted with Glypican-1, but not with Glypican-3 was determined to prepare a chimeric protein expression vector having an amino acid sequence of the 430th or more position of Glypican-1 substituted with that of Glypican-3 (FIG. 17). Various expression vectors were transfected into the 293 cell and the reactivity with various anti-Glypican-1 antibodies was analyzed by FACS. Consequently, since the reactivity in FACS is not recognized in three clones #17(2-60), #2(1-5), and #10(1-57), it is believed that the epitope region in these clones is present in the 430th to the 530th corresponding to an extracellular region of Glypican-1 (FIG. 18).

[3] = target: T2, mouse Glypican-1 expressed on 293 cells; assay: FACS on 293 cells forcibly expressing mouse GPC1
Experimental: A mouse Glypican-1 expression vector or an empty vector was transfected to the 293 cell using lipofectamine 2000 and the reactivity with various clones of an anti-Glypican-1 antibody was analyzed by FACS.

[4] = target: T3, human Glypican-1 forcibly expressed on …; assay: FACS: clone as primary antibody, FITC-labeled goat anti-mouse IgG as secondary; CT01 cells forcibly expressing human Glypican-1 (CT01-GPC-1#42), Glypican-1-negative CT01 cells as negative cells
Experimental: In carrying out FACS analysis using an antibody, a chicken T-lymphoblast-like cell strain (CT01 cell) was used as a Glypican-1 negative cell and a CT01 cell (CT01-GPC-1#42) forcibly expressing human Glypican-1 was used as a Glypican-1 positive cell. Various clones of the developed antibodies were used as primary antibodies, a FITC-labeled Goat anti-Mouse IgG (H+L chain specific) (Southern Biotech) was used as a secondary antibody, measurement was carried out using FACS Cantoll (BD), and the measurement data was analyzed using Flow Jo (Tree Star). As a result, twenty types of clones were successfully developed as antibodies that can stain Glypican-1 with FACS.

[5] = target: T1, recombinant Glypican-1 (R&D systems …); assay: SPR (Biacore 3000): antibody captured by rabbit anti-mouse IgG on a CM5 chip, recombinant Glypican-1 added at various concentrations
Experimental: as §1

Row | Kd [1] [nM] | koff [1] [s⁻¹] | kon [1] [M⁻¹ s⁻¹] | binding result [2] | binding result [3] | binding result [4] | Kd [5] [nM] | Binder
1 |  | 0.000488 | 187000 | no binding | binds |  | 2.61 | anti-GPC-1 antibody 1-12 (antibody, V domains shown, it was captured and detected with anti-mouse IgG and the control was mouse IgG2a; also called #4; clone 1-12) VH: AVTLDESGGGLQTPGRALSLVCKASGFTFSRYAMYWVRQAPGKGLEFVAGIGNTGRYTGYGSAVKGRATISRDSGQSTVRLQLNNLRAEDTGNYYCAKSVSPYCCDAADIDAWGHGTEVIVST VL: ALTQPASVSANPGETVKITCSGGSSGYAYGWYQQKSPGSAPVTLLYSNNNRPSDIPSRFSGSKSGSTATLTITGVQAEDEAVYFCGSVDSSSYAGIFGAGTTLTV
2 |  |  |  | no binding |  |  |  | anti-GPC-1 antibody 2-70 (antibody, V domains shown, detection was with anti-mouse IgG and the control was mouse IgG2a; also called #19; clone 2-70) VH: AVTLDESGGGLQTPGGALSLVCKASGLSTFSDRGMHWVRQAPGKGLEFVAAISSSGRFTLYGAAVKGRATISRDNGQSTVRLQLNDLRAEDTAIYYCARGTTTGWWADAGEIDAWGHGTEVIVST VL: ALTQPAFMSANPGETVKITCSGGSYSAYGWFQQKSPGSAPVTLIYNDNIRPSDISSRFSGSKSGSTATLTITGVQADDEAVYFCGNEDRNNTATFGAGTTLTV
3 | 176 | 0.00213 | 12100 | no binding | binds |  |  | anti-GPC-1 antibody 1-57 (antibody, V domains shown, detection was with anti-mouse IgG and the control was mouse IgG2a; also called #10; clone 1-57) VH: AVTLDESGGGLQTPGGGLSLVCKGSGFTLTDRGMHWVRQAPGKGLEWVAAISSSGRFTLYAPAVTGRATISRDNGQSTVRLQLNNLRAEDTGTYYCARGNAGGWWADGGEIDAWGHGTEVIVST VL: ALTQPSSVSANPGETVKITCSGGSGSYGWFQQKSPGSAPVTVIYSNNKRPTDIPSRFSGSKSGSTNTLTITGVQADDEAVYFCGSADSSYIGIFGAGTTLTV
4 | 15.2 | 0.00105 | 69100 | no binding |  |  |  | anti-GPC-1 antibody 2-60 (antibody, V domains shown, detection was with anti-mouse IgG and the control was mouse IgG2a; also called #17; clone 2-60) VH: AVTLDESGGGLQTPGGALSLVCKASGFTYSSYAMGWVRQAPGKGLEFVASISSDGSDTAYGSAVKGRATISRDNRQSTLRLQLNNLRAEDTGTYYCAKSYRCSWNCWDYAAKIDAWGHGTEVTVS VL: VALTQPASVSANPGETVKITCSGSGSYTGSYYYGWYQQKSPGSAPVTVIYNNNKRPSDIPSRFSGSTSGSTATLTITGVQAEDEAVYFCGSYDRSSDSGIFGAGTTLTV

The next lines start with the binder.

Row | Binder | Kd [1] [nM] | koff [1] [s⁻¹] | kon [1] [M⁻¹ s⁻¹] | binding result [2] | binding result [3] | binding result [4] | Kd [5] [nM]
5 | anti-GPC-1 antibody 1-5 (antibody, V domains shown, detection was with anti-mouse IgG and the control was mouse IgG2a; also called #2; clone 1-5) VH: AVTLDESGGGLQTPGGALSLVCKASGFKFRSYDMYWVRQAPGKGLEYVAGIINTGRETYYGAAVKGRATISRDNGRSTVRLQLNNLRAEDTGTYFCAKGAAWNYAGSIDAWGHGTEVIVST VL: ALTQPASVSANPGETVKITCSGGSGSYGWYQQKSPGSAPVTVIYGDNKRPTDISSRFSGSTSGSTNTLTITGVQAEDEAVYFCGSRDNTYAGIFGAGTTLTV | 20.9 | 0.000951 | 45500 | no binding | binds |  | 
6 | anti-GPC-1 antibody 1-50 (antibody, V domains shown, detection was with anti-mouse IgG) VH: AVTLDESGGGLQTPGGALSLVCKASGFTFNNNGMSWVRQAPGKGLEWVAGISGAGYSNYAPAVKGRATISRDNGQSTVRLQLNSLRAEDTGTYFCAKVASSCGNECYTSGFIDAWGHGTEVIVST VL: ALTQPASVSANLGGTVKITCSGGSGSYGWYQQKSPGSAPVTVIFWDNERPSDIPSRFSGSKSGSTHTLTITGVQAEDEAVYFCGSRDRMYDGIFGAGTTLTV |  |  |  |  |  | binds | 
7 | anti-GPC-1 antibody 1-30 (antibody, V domains shown, detection was with anti-mouse IgG) VH: AVTLDESGGGLQTPGGGLSLVCKASGFTLNSYDMLWVRQAPGKGLEFVAAISIASGSSYAPAVKGRATISRDNGQSTVRLQLNNLRAEDTGTYYCARGGTGYYYSDATGQIDAWGHGTEVIVST VL: ALTQPSSVSANPGETVKITCSGGSSGYGYGWYQQKAPGSAPVTVIYSNNQRPSNIPSRFSGSTSGSTSTLTITGVQADDEAVYYCGSTDSSTYDGIFGAGTTLTV |  |  |  |  |  | binds | 
8 | anti-GPC-1 antibody 1-4 (antibody, V domains shown, detection was with anti-mouse IgG) VH: AVTLEESGGGLQTPGGGLSLVCKASGFDFRNNGMAWVRQAPGKGLEWVAGISGTAYAVYGAAVKGRATISRDNGQSTVRLQLNNLRAEDTATYYCAKTVGSCGIDCHTTGFIDGWGHGTEVIVST VL: ALTQPSSVSANPGETVKITCSGGSYSYGWFQQKSPGSAPVTVIYWDDERPSGIPSRFSGSKSGSTGTLTITGVQAEDEAVYFCGSRDSSYVGIFGAGTTLTV |  |  |  |  |  | binds | 
9 | anti-GPC-1 antibody 2-63 (antibody, V domains shown, detection was with anti-mouse IgG and the control was mouse IgG2a; also called #18; clone 2-63) VH: AVTLDESGGGLQTPGGTLSLVCKASGFDFSSVNMFWVRQAPGKGLEFVAGIDNDATFTLYGSAVKGRASISRDNGQSTVRLQLNNLRAEDTGTYYCAKTLCSTTWGCGAYSAGDIDAWGHGTEVTVST VL: ALTQPSSVSANPGETVKITCSGGGSSGYGYYGWYQQKSPGSAPVTVIYNNNKRPTDIPSRFSGALSGSTATLTITGVQVEDEAVYYCGSRDNTYVGIFGAGTTLTV | 6.19 | 0.000848 | 137000 |  |  |  | 
10 | anti-GPC-1 antibody 1-10 (antibody, V domains shown, detection was with anti-mouse IgG) VH: AVTLDESGGGLQTPGGGLSLVCKASGFTFSGYDMMWVRQAPGKGLEWVGQISSTGSIQKYGAAVKGRATISRDNGQSTMRLQLNDLRAEDTGTYFCAKSAYGYSSSGPEDIDAWGHGTEVIVST VL: ALTQPASVSANLGGTVKITCSGGSSDAYGWYQQKSPDSAPVTVIYGNNNRPSDIPSRFSGSTSGSTNTLTITGVQADDEAVYFCGSYDGSTDSDGIFGAGTTLTV |  |  |  |  |  | binds | 
11 | anti-GPC-1 antibody 1-18 (antibody, V domains shown, detection was with anti-mouse IgG) VH: AVTLDESGGGLQTPGGALSLVCKASGFTFSSYTMFWVRQAPGKGLEFVAGIDNTGIYTPYGSAVKGRATISRDNGQSTVRLQLNNLRAEDTGTYYCAKYADACTGPWCGSSAYTGSTIDAWGHGTEVTVST VL: ALTQPSSVSANPGETVKLTCSGGGSYYGWYQQKSPGSAPVTVIYENTERPSNIPSRFSGSTSGSTSTLTIIGVQADDEAVYFCGGYDSSTDAGIFGAGTTLTV |  |  |  |  |  | binds | 
12 | anti-GPC-1 antibody 1-28 (antibody, V domains shown, detection was with anti-mouse IgG and the control was mouse IgG2a; also called #7; clone 1-28) VH: AVTLDESGGGLQTPGRALSLVCKASGFTFSSYTMFWVRQAPGKGLEFVAGIDNTGIYTPYGSAVKGRATISRDNGQSTVRLQLNNLRAEDTGTYYCAKYADACTGPWCGSSAYTASTIDAWGHGTEVIVST VL: ALTQPASVSANLGGTVEITCSGGGNDYGWYQQKSPGSAPVTVIYDSINRPSNIPSRFSGSTSGSTATLTITGVQADDEAVYFCGSYDSSYVGIFGAGTTLTV |  |  |  | no binding | binds |  | 
